Experimental data published in PMC6736635.
Read-outs that look alike come from different tables or passages of the source.

Key:
Test in all cases: fluorescence anisotropy
PRC2-AEBP2 mt2 = PRC2-AEBP2 mt2 (Homo sapiens, UniProt Q15910;Q15022;O75530;Q09028;Q6ZN18 1-746;1-739;1-441;1-425;1-517, H129A;K156A;H158A;G159A;R161A;R306A)
PRC2-AEBP2 mt5 = PRC2-AEBP2 mt5 (Homo sapiens, UniProt Q15910;Q15022;O75530;Q09028;Q6ZN18 1-746;1-739;1-441;1-425;1-517, Y133A;T144A;F145A;Y153A;Y308A)
PRC2-AEBP2 mt1 = PRC2-AEBP2 mt1 (Homo sapiens, UniProt Q15910;Q15022;O75530;Q09028;Q6ZN18 1-746;1-739;1-441;1-425;1-517, R27A;R31A;F165A;R355A)
PRC2-MTF2-EPOP = PRC2-MTF2-EPOP (Homo sapiens, UniProt Q15910;Q15022;O75530;Q09028;Q9Y483;A6NHQ4 1-746;1-739;1-441;1-425;1-593;1-379)
PRC2-PHF19 = PRC2-PHF19 (Homo sapiens, UniProt Q15910;Q15022;O75530;Q09028;Q5T6S3 1-746;1-739;1-441;1-425;1-580)
[1] = biological target: PRC2 core (EZH2-EED-SUZ12-RBBP4) (Homo sapiens, UniProt Q15910;Q15022;O75530;Q09028 1-746;1-739;1-441;1-425)
PRC2-AEBP2 mt4 = PRC2-AEBP2 mt4 (Homo sapiens, UniProt Q15910;Q15022;O75530;Q09028;Q6ZN18 1-746;1-739;1-441;1-425;1-517, K656A)
PRC2-AEBP2 mt3 = PRC2-AEBP2 mt3 (Homo sapiens, UniProt Q15910;Q15022;O75530;Q09028;Q6ZN18 1-746;1-739;1-441;1-425;1-517, R16A;K17A;R18A;K20A)
PRC2-MTF2 = PRC2-MTF2 (Homo sapiens, UniProt Q15910;Q15022;O75530;Q09028;Q9Y483 1-746;1-739;1-441;1-425;1-593)
PRC2-AEBP2 [2] = biological target: T1, PRC2-AEBP2 (Homo sapiens, UniProt Q15910;Q15022;O75530;Q09028;Q6ZN18 1-746;1-739;1-441;1-425;1-517)
PRC2-AEBP2 [3] = biological target: T1, PRC2-AEBP2; remark: listed apart in the source
PRC2-AEBP2 [4] = biological target: T1, PRC2-AEBP2; remark: listed apart in the source

PRC2 core (EZH2-EED-SUZ12-RBBP4), sequence (Q15910 whole entry, chain 1 of 4): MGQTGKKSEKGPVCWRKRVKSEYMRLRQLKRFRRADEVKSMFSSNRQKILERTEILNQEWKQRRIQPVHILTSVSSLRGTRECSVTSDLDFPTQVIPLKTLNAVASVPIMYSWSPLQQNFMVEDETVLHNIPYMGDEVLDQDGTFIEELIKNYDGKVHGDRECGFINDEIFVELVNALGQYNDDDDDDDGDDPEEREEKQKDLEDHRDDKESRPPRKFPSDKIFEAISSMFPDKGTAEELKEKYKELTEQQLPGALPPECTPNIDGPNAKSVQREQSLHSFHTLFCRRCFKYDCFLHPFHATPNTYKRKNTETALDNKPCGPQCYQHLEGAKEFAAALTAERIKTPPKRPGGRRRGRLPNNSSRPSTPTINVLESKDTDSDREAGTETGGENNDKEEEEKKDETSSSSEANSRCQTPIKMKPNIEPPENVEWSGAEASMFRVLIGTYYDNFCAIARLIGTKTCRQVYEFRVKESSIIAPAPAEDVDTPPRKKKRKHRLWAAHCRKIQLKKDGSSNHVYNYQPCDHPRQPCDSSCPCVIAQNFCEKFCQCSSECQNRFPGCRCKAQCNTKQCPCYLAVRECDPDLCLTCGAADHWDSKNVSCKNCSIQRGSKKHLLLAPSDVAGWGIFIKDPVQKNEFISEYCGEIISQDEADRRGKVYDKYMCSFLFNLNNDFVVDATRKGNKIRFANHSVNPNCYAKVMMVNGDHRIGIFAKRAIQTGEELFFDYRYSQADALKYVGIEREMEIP
PRC2 core (EZH2-EED-SUZ12-RBBP4), sequence (Q15022 whole entry, chain 2 of 4): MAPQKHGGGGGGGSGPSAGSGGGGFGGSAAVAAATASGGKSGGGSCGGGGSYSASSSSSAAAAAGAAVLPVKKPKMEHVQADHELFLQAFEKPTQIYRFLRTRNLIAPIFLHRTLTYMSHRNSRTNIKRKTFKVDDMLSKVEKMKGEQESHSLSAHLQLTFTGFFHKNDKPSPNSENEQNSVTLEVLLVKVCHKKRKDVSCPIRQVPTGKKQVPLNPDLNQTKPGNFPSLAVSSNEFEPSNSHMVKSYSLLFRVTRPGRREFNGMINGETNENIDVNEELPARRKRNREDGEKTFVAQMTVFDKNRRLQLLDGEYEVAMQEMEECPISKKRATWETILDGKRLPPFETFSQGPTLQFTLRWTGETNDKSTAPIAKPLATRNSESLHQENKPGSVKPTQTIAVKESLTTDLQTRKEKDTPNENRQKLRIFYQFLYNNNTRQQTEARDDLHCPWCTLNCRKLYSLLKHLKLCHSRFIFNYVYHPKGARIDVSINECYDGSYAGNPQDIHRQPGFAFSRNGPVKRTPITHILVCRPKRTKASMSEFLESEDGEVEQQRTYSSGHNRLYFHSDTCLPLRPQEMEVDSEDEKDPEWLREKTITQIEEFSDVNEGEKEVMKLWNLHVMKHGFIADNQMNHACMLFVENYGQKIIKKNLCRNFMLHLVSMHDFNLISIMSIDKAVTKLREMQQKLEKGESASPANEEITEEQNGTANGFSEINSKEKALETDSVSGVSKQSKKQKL
PRC2 core (EZH2-EED-SUZ12-RBBP4), sequence (O75530 whole entry, chain 3 of 4): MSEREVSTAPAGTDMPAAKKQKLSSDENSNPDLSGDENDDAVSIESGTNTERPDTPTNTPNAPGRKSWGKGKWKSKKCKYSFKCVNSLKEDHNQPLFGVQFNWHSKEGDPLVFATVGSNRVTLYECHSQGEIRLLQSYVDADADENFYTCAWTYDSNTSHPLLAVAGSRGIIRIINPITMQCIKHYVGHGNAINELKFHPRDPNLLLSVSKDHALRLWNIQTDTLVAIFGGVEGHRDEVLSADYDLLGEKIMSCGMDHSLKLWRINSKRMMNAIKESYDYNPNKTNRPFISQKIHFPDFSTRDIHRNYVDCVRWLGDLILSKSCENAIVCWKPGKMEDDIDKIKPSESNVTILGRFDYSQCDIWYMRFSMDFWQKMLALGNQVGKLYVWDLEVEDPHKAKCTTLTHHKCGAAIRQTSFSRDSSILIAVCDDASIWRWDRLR
PRC2 core (EZH2-EED-SUZ12-RBBP4), sequence (Q09028 whole entry, chain 4 of 4): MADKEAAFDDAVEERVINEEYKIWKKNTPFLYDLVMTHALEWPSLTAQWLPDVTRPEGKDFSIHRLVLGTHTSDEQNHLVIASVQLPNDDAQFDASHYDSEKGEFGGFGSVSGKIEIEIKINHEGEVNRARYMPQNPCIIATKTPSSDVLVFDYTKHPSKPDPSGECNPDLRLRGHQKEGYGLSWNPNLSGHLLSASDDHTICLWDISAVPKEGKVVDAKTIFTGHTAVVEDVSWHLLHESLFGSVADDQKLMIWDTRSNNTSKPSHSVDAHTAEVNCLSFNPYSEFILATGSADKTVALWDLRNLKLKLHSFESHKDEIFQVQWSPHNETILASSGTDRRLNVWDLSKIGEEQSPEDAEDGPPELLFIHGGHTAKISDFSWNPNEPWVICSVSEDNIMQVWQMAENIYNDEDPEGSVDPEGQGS

UUAGGGUUAGGGUUAGGGUUAGGG (structured_RNA) [G4 24 RNA]
Kd (PRC2-AEBP2 mt2): 141 ± 8 nM | Kd (PRC2-AEBP2 mt5): 93.7 ± 6.3 nM | Kd (PRC2-AEBP2 mt1): 173 ± 7 nM | Kd (PRC2-MTF2-EPOP): 40.9 ± 3.9 nM | Kd (PRC2-PHF19): 34 ± 1.8 nM | Kd [1]: 129 ± 6 nM | Kd (PRC2-AEBP2 mt4): 102 ± 4 nM | Kd (PRC2-AEBP2 mt3): 124 ± 7 nM | Kd (PRC2-MTF2): 82.4 ± 9.8 nM | Kd (PRC2-AEBP2 [2]): 54.6 ± 3.8 nM | Kd (PRC2-AEBP2 [3]): 19.2 ± 2.7 nM | Kd (PRC2-AEBP2 [4]): 60.5 ± 2.2 nM
